Series [1] concerns the target T1, Avi-tagged NFR5 (residues 276-595, Avitag) (Lotus japonicus, biotinylated Avi tag implied by capture on streptavidin biosensors; site not given).
T1 construct: NFR5 intracellular domain (juxtamembrane, pseudokinase, C-terminal tail) with an N-terminal Avi tag, immobilised on streptavidin biosensors; also called NFR5 Avitag; AviTag NFR5
T1 chain: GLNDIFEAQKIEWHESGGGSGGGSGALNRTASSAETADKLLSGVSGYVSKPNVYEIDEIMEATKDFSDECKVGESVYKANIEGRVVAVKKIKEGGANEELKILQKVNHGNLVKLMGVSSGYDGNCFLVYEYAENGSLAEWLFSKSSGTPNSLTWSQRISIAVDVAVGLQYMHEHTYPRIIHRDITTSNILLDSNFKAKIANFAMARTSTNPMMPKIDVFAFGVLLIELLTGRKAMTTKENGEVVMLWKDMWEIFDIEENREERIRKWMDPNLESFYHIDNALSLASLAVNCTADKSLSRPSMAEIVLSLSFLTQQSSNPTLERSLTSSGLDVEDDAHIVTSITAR
The experiment in a line: BLI, Avi-tagged NFR5 on streptavidin biosensors, Nb200 5-0.08 µM, 1:1 association/dissociation fit. The source says:
(§1) The x-axis indicates time in seconds. The y-axis indicates the wavelength shift in nm. […] The x-axis indicates time in seconds. The y-axis indicates the wavelength shift in nm. […] Blue dotted lines demarcate fractions with complex formation, labelled as P1. Elution of excess Nb200 is labelled as P2. The x-axis indicates volume through the column in mL. The y-axis indicates the UV₂₈₀ milli absorbance units (mAu). […] The first lane, “M”, contains a molecular weight ladder, labeled to the left of the gel picture with the respective kDa amount. Lane “Inp” contains a sample of the input. Lanes “P1” contain fractions from the P1 complex section of the purification. Lanes “P2” contain fractions from the P2 section of the purification with excess Nb200. The black horizontal line over lanes indicates fractions pooled. Arrows indicate the proteins of interest.
(§2) Streptavidin (SA) biosensors (kinetic quality, Molecular devices, FortéBio) were equilibrated in Binding buffer (50 mM Tris-HCl pH 8, 200 mM NαCl, 0.01% TWEEN® 20) before use. AviTag™ NFR5 in Binding buffer was immobilized on SA sensors until 0.1 nm using an Octet® RED96 (Molecular devices, ForteBio) at 25° C. […] Unspecific binding was measured to a biotin loaded SA sensor and was subtracted from the interaction datasets.
Background: BLI is a label-free optical method that tracks binding on a fibre tip over time.

The target of series [2] is T2, C-terminal tailless NFR5 (residues 276-563) (Lotus japonicus).
T2 construct: Construct used for the SEC complex and the crystal structure with Nb200 (PDB 8S79)
T2 chain: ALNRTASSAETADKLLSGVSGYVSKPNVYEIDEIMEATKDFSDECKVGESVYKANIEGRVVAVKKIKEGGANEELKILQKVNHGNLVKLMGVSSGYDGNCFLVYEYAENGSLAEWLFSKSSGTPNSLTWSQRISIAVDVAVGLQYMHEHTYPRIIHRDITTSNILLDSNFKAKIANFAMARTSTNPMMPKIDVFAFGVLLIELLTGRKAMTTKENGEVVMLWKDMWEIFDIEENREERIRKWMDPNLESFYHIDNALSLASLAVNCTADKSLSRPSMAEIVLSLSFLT
Nature of the series: size exclusion chromatography of NFR5 (residues 276-563) mixed with an excess of Nb200, fractions analysed by SDS-PAGE (co-elution).

Series [3] concerns the target T1, Avi-tagged NFR5 (residues 276-595, …). Nature of the series: bio-layer interferometry; Avi-tagged NFR5 immobilised on streptavidin biosensors, Nb200 control in solution at 0.08-5 µM.
Description: as §1, §2

Series [4] deals with the molecule itself. The experiment in a line: dynamic light scattering, concentration series 1-6 mg/ml, self-interaction in solution. The source says: Diffusion coefficients/concentration plots were used to derive self-interaction parameters, kSI (also known as the diffusion interaction parameter kD), by linear regression in GraphPad prism 9 (Graphstats Technologies).
It was hypothesized that the exposed juxtamembrane motif could function as a hydrophobic interaction surface. […] The NFR5 pattern resembled the pattern formed by the well-known oligomer forms of Bovine Serum Albumin (FIG. 7B). Dynamic light scattering (DLS) was used to measure the in solution particle size dispersity of the NFR5 sample. […] To investigate whether this self-interaction was mediated by the juxtamembrane motif, two variants were generated with substitutions in either αA (L290E, L291E) or αA′ (V294E, Y297E, V298E) that were referred to as 2E (SEQ ID NO: 148) and 3E (SEQ ID NO: 149), respectively (FIG. 7A). It was hypothesized that the introduction of charged glutamates would abolish hydrophobic interactions engaged by the motif. […] A second DLS experiment was performed to compare the in solution self-interaction of wildtype NFR5 with 2E and 3E by measuring their self-interaction parameter (kSI) over a protein concentration series (FIGS. 7D-7F). […] Next an N-terminal Avi-tagged NFR5 was purified in order to immobilize the NFR5 intracellular domain on a streptavidin biosensor (FIGS. 4A-4D, 7G). The immobilized NFR5 was used in a bio-layer interferometry experiment to measure interaction to WT, 2E, and 3E variants (FIGS. 7H-7J).

For series [5], the target named is T1, Avi-tagged NFR5 (residues 276-595, …). The experiment in a line: bio-layer interferometry; Avi-tagged NFR5 WT immobilised on streptavidin biosensors, NFR5 WT in solution at 0.07-3.6 mg/mL. The protocol: (§3) An Avi-tagged version of NFR5 WT (purple) was purified and immobilized on streptavidin biosensors (top box with four-pointed stars representing streptavidin). NFR5 loaded biosensors were assayed against NFR5 WT, 2E (SEQ ID NO: 148), and 3E (SEQ ID NO: 149). […] A clear concentration dependent interaction to NFR5 WT was measured. The x-axis indicates time in seconds; the y-axis indicates nm. […] No interaction was observed. The x-axis indicates time in seconds; the y-axis indicates nm.
(§4) Streptavidin (SA) biosensors (kinetic quality, Molecular devices, FortéBio) were equilibrated in Binding buffer (50 mM Tris-HCl pH 8, 200 mM NαCl, 0.01% TWEEN® 20) before use. AviTag™ NFR5 in Binding buffer was immobilized on SA sensors until 0.1 nm using an Octet® RED96 (Molecular devices, ForteBio) at 25° C. […] Unspecific binding was measured to a biotin loaded SA sensor and was subtracted from the interaction datasets. Data was processed and analyzed in FortéBio Data Analysis 7 (Molecular devices, ForteBio) and GraphPad prism 9 (Graphstats Technologies). […]

The target is the same in series [6]. Nature of the series: bio-layer interferometry; Avi-tagged NFR5 WT immobilised on streptavidin biosensors, NFR5 2E in solution at 0.07-3.6 mg/mL. As for the experimental part:
as §3, §4

The target is the same in series [7]. The experiment in a line: bio-layer interferometry; Avi-tagged NFR5 WT immobilised on streptavidin biosensors, NFR5 3E in solution at 0.07-3.6 mg/mL. The protocol:
as §3, §4

Numbering of substitutions follows the chain as printed. Names may count otherwise.

B1: VHH Nb200 (VHH)
VHH: QVQLVESGGGSVQAGDSLRLSCTGPGRTDGPYVMGWFRQAPEKEREFVAAISRYGSGTYYADSVRGRFTISRDNVKNTVYLQMNSLKPEDTAIYYCNRVPPVLSWGQGTQVTVSS
notes: also called Nb2NFR5
For B1, in series [1], the Kd – broadly, the concentration at which binding is half-saturated – is 0.174 µM. Moreover, in series [2], the binding result is reported as “binds”.

B2: VHH Nb200 control (A51E Y60E V100E) (VHH)
VHH: B1 VHH with A50E, Y59E, V99E
notes: Negative control triple mutant of Nb200; VHHs were cloned with a C-terminal 6xHis tag; also called VHH Nb200 mutant; Nb200 A51E Y60E V100E
Take B2: in series [3], the binding result is recorded as “no binding (tested: 5 µM)”.

B3: NFR5 intracellular domain (residues 276-595) (receptor)
chain: ALNRTASSAETADKLLSGVSGYVSKPNVYEIDEIMEATKDFSDECKVGESVYKANIEGRVVAVKKIKEGGANEELKILQKVNHGNLVKLMGVSSGYDGNCFLVYEYAENGSLAEWLFSKSSGTPNSLTWSQRISIAVDVAVGLQYMHEHTYPRIIHRDITTSNILLDSNFKAKIANFAMARTSTNPMMPKIDVFAFGVLLIELLTGRKAMTTKENGEVVMLWKDMWEIFDIEENREERIRKWMDPNLESFYHIDNALSLASLAVNCTADKSLSRPSMAEIVLSLSFLTQQSSNPTLERSLTSSGLDVEDDAHIVTSITAR
notes: Expressed with an N-terminal thioredoxin-6xHis-TEV fusion tag that was removed by TEV protease before use; also called NFR5 WT
Consider B3, for which the “self-interaction parameter kSI” value in series [4] was -14.6 mL/g. For the same molecule, the binding result in series [5] is reported as “binds”.

B4: NFR5 residues 276-595, L290E/L291E (2E) (receptor)
chain: B3 chain with L15E, L16E
notes: Mutation numbers follow full-length NFR5; also called NFR5 2E; alphaA 2E
As for B4, the “self-interaction parameter kSI” value in series [4] was -10.8 mL/g. In addition, in series [6], the binding result is reported as “no binding (tested: 3.6 mg/mL)”.

B5: NFR5 residues 276-595, V294E Y297E V298E (3E) (receptor)
chain: B3 chain with V19E, Y22E, V23E
notes: Mutation numbers follow full-length NFR5; also called NFR5 3E; alphaA' 3E
Regarding B5, the “self-interaction parameter kSI” value in series [4] is -7.1 mL/g. Besides, the binding result in series [7] was “no binding (tested: 3.6 mg/mL)”.

Source of the values: patent US20240344078A1 (AARHUS UNIVERSITET, published 2024).
